Source: the Immune Epitope Database (IEDB)
One block for each sequence: values may come before it.

What was measured:
[1] = target: HLA-B*15:17; experiment: IEDB peptide-MHC binding, purified MHC/competitive/fluorescence; filed as Kd, often an IC50 or EC50 that approximates it; ≥ and ≤ were set here for values at or beyond the usual limits of such assays; conditions: source organism: Human immunodeficiency virus 1
[2] = target: HLA-A*30:01; experiment: as above; conditions: source organism: Human immunodeficiency virus 1
[3] = target: HLA-A*11:01; experiment: as above; conditions: source organism: Human immunodeficiency virus 1
[4] = target: HLA-B*39:01; experiment: as above; conditions: source organism: Human immunodeficiency virus 1
[5] = target: HLA-A*26:01; experiment: as above; conditions: source organism: Human immunodeficiency virus 1
[6] = target: HLA-B*15:01; experiment: as above; conditions: source organism: Human immunodeficiency virus 1
[7] = target: HLA-B*08:02; experiment: as above; conditions: source organism: Human immunodeficiency virus 1
[8] = target: HLA-B*57:01; experiment: as above; conditions: source organism: Human immunodeficiency virus 1
[9] = target: HLA-A*01:01; experiment: as above; conditions: source organism: Human immunodeficiency virus 1
[10] = target: HLA-B*37:01; experiment: IEDB peptide-MHC binding, purified MHC/competitive/fluorescence; ≥ and ≤ were set here for values at or beyond the usual limits of such assays; conditions: source organism: Homo sapiens
[11] = target: HLA-A*29:02; experiment: as above; conditions: source organism: Homo sapiens
[12] = target: HLA-B*58:01; experiment: as above; conditions: source organism: Homo sapiens
[13] = target: HLA-B*40:02; experiment: as above; conditions: source organism: Homo sapiens
[14] = target: HLA-B*51:01; experiment: as above; conditions: source organism: Homo sapiens
[15] = target: HLA-B*07:02; experiment: as above; conditions: source organism: Homo sapiens
[16] = target: HLA-A*11:01; experiment: as above; conditions: source organism: Homo sapiens
[17] = target: HLA-B*35:01; experiment: as above; conditions: source organism: Homo sapiens
[18] = target: HLA-B*18:01; experiment: as above; conditions: source organism: Homo sapiens
[19] = target: HLA-A*03:01; experiment: as above; conditions: source organism: Homo sapiens
[20] = target: HLA-A*25:01; experiment: as above; conditions: source organism: Homo sapiens
[21] = target: HLA-A*31:01; experiment: as above; conditions: source organism: Homo sapiens
[22] = target: HLA-B*14:02; experiment: as above; conditions: source organism: Homo sapiens
[23] = target: HLA-A*02:01; experiment: as above; conditions: source organism: Homo sapiens
[24] = target: HLA-B*44:03; experiment: as above; conditions: source organism: Homo sapiens
[25] = target: HLA-B*53:01; experiment: as above; conditions: source organism: Homo sapiens
[26] = target: HLA-A*68:02; experiment: as above; conditions: source organism: Homo sapiens
[27] = target: HLA-A*24:02; experiment: as above; conditions: source organism: Homo sapiens
[28] = target: HLA-B*08:01; experiment: as above; conditions: source organism: Homo sapiens
[29] = target: HLA-A*01:01; experiment: as above; conditions: source organism: Homo sapiens
[30] = target: HLA-B*08:03; experiment: IEDB peptide-MHC binding, purified MHC/direct/fluorescence; filed as Kd, often an IC50 or EC50 that approximates it; ≥ and ≤ were set here for values at or beyond the usual limits of such assays; conditions: source organism: Bacillus cereus H3081.97
[31] = target: HLA-B*46:01; experiment: IEDB peptide-MHC binding, purified MHC/competitive/fluorescence; filed as Kd, often an IC50 or EC50 that approximates it; ≥ and ≤ were set here for values at or beyond the usual limits of such assays; conditions: source organism: Escherichia coli str. K-12 substr. MG1655
[32] = target: HLA-A*02:50; experiment: IEDB peptide-MHC binding, purified MHC/direct/fluorescence; filed as Kd, often an IC50 or EC50 that approximates it; ≥ and ≤ were set here for values at or beyond the usual limits of such assays; conditions: source organism: Escherichia coli O157:H7 str. EC869
[33] = target: HLA-B*44:02; experiment: as above; conditions: source organism: Escherichia coli O157:H7 str. EC869
[34] = target: HLA-A*29:02; experiment: as above; conditions: source organism: Escherichia coli O157:H7 str. EC869
[35] = target: HLA-B*58:01; experiment: as above; conditions: source organism: Escherichia coli O157:H7 str. EC869
[36] = target: HLA-A*23:01; experiment: as above; conditions: source organism: Escherichia coli O157:H7 str. EC869
[37] = target: HLA-B*51:01; experiment: as above; conditions: source organism: Escherichia coli O157:H7
[38] = target: HLA-B*07:02; experiment: as above; conditions: source organism: Escherichia coli O157:H7
[39] = target: HLA-A*30:01; experiment: as above; conditions: source organism: Escherichia coli O157:H7 str. EC869
[40] = target: HLA-B*18:01; experiment: as above; conditions: source organism: Escherichia coli O157:H7 str. EC869
[41] = target: HLA-B*15:01; experiment: as above; conditions: source organism: Escherichia coli O157:H7 str. EC869
[42] = target: HLA-A*02:10; experiment: as above; conditions: source organism: Escherichia coli O157:H7 str. EC869
[43] = target: HLA-A*24:03; experiment: as above; conditions: source organism: Escherichia coli O157:H7 str. EC869
[44] = target: HLA-B*57:01; experiment: as above; conditions: source organism: Escherichia coli O157:H7 str. EC869
[45] = target: HLA-A*02:11; experiment: as above; conditions: source organism: Escherichia coli O157:H7 str. EC869
[46] = target: HLA-B*40:01; experiment: as above; conditions: source organism: Escherichia coli O157:H7 str. EC869

Sequence: GTEEIRSLY
Kd [1]: 0.0605 µM
Kd [2]: 13 µM
Kd [3]: ≥ 20 µM
Kd [4]: ≥ 20 µM
Kd [5]: 0.429 µM
Kd [6]: ≥ 20 µM
Kd [7]: ≥ 20 µM
Kd [8]: ≥ 20 µM
Kd [9]: 0.012 µM

IC50 [10]: ≥ 20 µM
IC50 [11]: 0.661 µM
IC50 [12]: ≥ 20 µM
IC50 [13]: ≥ 20 µM
IC50 [14]: ≥ 20 µM
IC50 [15]: ≥ 20 µM
IC50 [16]: ≥ 20 µM
IC50 [17]: ≥ 20 µM
IC50 [18]: ≥ 20 µM
IC50 [19]: ≥ 20 µM
IC50 [20]: ≥ 20 µM
IC50 [21]: ≥ 20 µM
IC50 [22]: 15.1 µM
IC50 [23]: 2.91 µM
IC50 [24]: ≥ 20 µM
IC50 [25]: ≥ 20 µM
IC50 [26]: 3.62 µM
IC50 [27]: 1.13 µM
IC50 [28]: ≥ 20 µM
IC50 [29]: ≥ 20 µM
Sequence: YFYYNAFHWAI

Sequence: FPKVRAQEL
Kd [30]: 0.209 µM

Kd [31]: 3 µM
Kd [32]: ≥ 20 µM
Kd [33]: ≥ 20 µM
Kd [34]: ≥ 20 µM
Kd [35]: ≥ 20 µM
Kd [36]: ≥ 20 µM
Kd [37]: ≥ 20 µM
Kd [38]: 0.316 µM
Kd [39]: ≥ 20 µM
Kd [40]: ≥ 20 µM
Kd [41]: 0.031 µM
Kd [42]: ≥ 20 µM
Kd [43]: ≥ 20 µM
Kd [44]: ≥ 20 µM
Kd [45]: ≥ 20 µM
Kd [46]: ≥ 20 µM
Sequence: ESMMGSTAM
